Earlier results, collected in PMC8179794.
Where two headings read alike, the source gives them in different places.

Tests used:
IL-2Rα (Homo sapiens) = IL-2Rα (Homo sapiens) (UniProt P01589)
IL-2Rβ (Homo sapiens) [1] = target: IL-2Rβ (Homo sapiens) (UniProt P14784)
IL-9R (Homo sapiens) = IL-9R (Homo sapiens) (UniProt Q01113)
IL-15Rα (Homo sapiens) = IL-15Rα (Homo sapiens) (UniProt Q13261)
IL-2Rβ (Homo sapiens) [2] = target: IL-2Rβ (Homo sapiens) (UniProt P14784); remark: listed apart in the source
IL-21R (Homo sapiens) = IL-21R (Homo sapiens) (UniProt Q9HBE5)
Chain of UniProt Q9HBE5 (Q9HBE5 20-232): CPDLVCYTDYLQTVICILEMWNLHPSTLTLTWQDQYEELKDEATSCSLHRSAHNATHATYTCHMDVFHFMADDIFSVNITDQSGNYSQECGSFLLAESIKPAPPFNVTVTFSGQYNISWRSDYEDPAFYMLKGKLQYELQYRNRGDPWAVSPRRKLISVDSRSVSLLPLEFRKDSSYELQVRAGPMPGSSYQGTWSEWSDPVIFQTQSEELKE

Chain of UniProt P14784 (P14784 27-240): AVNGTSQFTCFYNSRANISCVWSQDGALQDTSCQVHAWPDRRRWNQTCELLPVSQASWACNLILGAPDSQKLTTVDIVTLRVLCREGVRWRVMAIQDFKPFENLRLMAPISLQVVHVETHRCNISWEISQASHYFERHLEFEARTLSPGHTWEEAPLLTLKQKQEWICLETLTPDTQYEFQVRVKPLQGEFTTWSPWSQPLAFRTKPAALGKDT
Chain of UniProt Q01113 (Q01113 41-270): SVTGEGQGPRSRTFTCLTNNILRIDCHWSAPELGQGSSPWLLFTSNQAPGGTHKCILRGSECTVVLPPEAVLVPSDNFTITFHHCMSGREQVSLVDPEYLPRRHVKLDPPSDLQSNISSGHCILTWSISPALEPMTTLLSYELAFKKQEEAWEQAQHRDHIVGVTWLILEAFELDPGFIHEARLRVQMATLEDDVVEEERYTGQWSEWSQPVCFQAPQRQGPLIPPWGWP
Chain of UniProt P01589 (P01589 22-240): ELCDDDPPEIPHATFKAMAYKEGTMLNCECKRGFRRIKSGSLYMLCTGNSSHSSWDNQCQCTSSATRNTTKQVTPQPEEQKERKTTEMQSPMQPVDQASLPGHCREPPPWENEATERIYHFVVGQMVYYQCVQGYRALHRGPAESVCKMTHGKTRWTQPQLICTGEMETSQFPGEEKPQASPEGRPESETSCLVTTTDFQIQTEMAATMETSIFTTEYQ
Chain of UniProt Q13261 (Q13261 31-205): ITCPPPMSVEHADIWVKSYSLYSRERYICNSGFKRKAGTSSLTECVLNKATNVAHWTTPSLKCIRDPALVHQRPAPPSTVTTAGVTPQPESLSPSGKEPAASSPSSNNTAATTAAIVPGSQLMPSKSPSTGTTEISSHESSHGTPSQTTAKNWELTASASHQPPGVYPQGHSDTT

**Q.** Which Kd (IL-2Rα (Homo sapiens)) does the source give for IL-2 (from UniProt P60568) here?
**A.** 10 nM

**Q.** What about the Kd (IL-2Rβ (Homo sapiens) [1]) of the same substance?
**A.** 144 nM

**Q.** Which Kd (IL-9R (Homo sapiens)) does the source give for IL-9 (from UniProt P15248) here?
**A.** 0.1 nM

**Q.** Which Kd (IL-15Rα (Homo sapiens)) does the source give for IL-15 (from UniProt P40933) here?
**A.** 0.065 nM

**Q.** And the Kd (IL-2Rβ (Homo sapiens) [2])?
**A.** 438 nM

**Q.** For IL-21 (from UniProt Q9HBE4), which Kd (IL-21R (Homo sapiens)) is on record?
**A.** 0.07 nM
